US20220289837A1 (VIB VZW, published 2022)

B1: Nanobody T8 (VHH, not shown: small tags and cut ends)
VHH: QVQLQESGGGLVQPGGSLRLSCAASGSTSSINAMGWYRQAPGKQREPVAISSSGGDTRYAEPVKGRFTISRDNAQNKVYLQMNSLKPEDTAVYYCWLNWGRTSVNSWGQGTQVTVSS
notes: Llama nanobody; also called Nb T8; T8 Nb
B2: Nanobody T2a (VHH, not shown: small tags and cut ends)
VHH: QVQLQESGGGLVQAGGSLRLSCAASGSIFRIDAMGWYRQAPGKQRELVAHSTSGGSTDYADSVKGRFTISRDNAKNTVYLQMNSLKPEDTAVYYCNADVRTRWYASNNYWGQGTQVTVSS
notes: Llama nanobody; also called Nb T2a; T2a Nb

How the values were obtained:
F508del-2PT-NBD1 [1] = target: T1, F508del-2PT-NBD1 (human, UniProt P13569 388-646, biotinylated for the ELISA (sites not given)); experiment: ELISA, biotinylated F508del-2PT-NBD1 on avidin-coated plate, T8 titrated, anti-His detection; normalised to the maximum of T8 on 2PT-NBD1
T1 construct: also called F508del-2PT-NBD1 mutant
T1 sequence (P13569 other isoform, or with tags, fused parts or gaps limits assumed, stated change not applied): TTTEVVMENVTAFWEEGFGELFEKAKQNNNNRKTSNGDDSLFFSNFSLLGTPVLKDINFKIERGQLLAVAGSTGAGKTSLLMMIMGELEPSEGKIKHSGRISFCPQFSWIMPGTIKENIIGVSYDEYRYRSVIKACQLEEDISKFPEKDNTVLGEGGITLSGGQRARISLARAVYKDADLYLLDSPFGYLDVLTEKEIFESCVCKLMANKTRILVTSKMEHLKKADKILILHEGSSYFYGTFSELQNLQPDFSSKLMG
Protocol: (§1) (a) Nanobody binding to 2PT-NBD1 measured by ELISA. Biotinylated 2PT-NBD1 was immobilized on avidin-coated plates and incubated with increasing concentration of each nanobody. Binding of nanobody was followed by immunodetection of the His-tag (see Methods). Representative curve of 3 independent experiments is shown. Error bars represent the standard deviation (SD) of duplicates. Data were normalized to maximum signal for each nanobody separately. (b) Nanobody binding to F508del-2PT-NBD1 measured by ELISA as described in panel a. (c) Nanobody T4 binding to 2PT-NBD1 and F508del-2PT-NBD1. Data were normalized to maximum signal of T4 binding to 2PT-NBD1. (d) Nanobody T8 binding to 2PT-NBD1 and F508del-2PT-NBD1. Data were normalized to maximum signal of T8 binding to 2PT-NBD1.
(§2) For dose-response assays, Nunc MaxiSorp 96-well plates (ThermoScientific), were coated with 5 μg/ml NeutrAvidin Biotin-Binding protein (ThermoScientific) overnight at 4° C. and blocked 2 h at room temperature (RT) with 2% milk in phosphate-buffered saline (PBS). […] 50 μl of 1-Step UltraTMB-ELISA (ThermoScientific) was used as a substrate for the peroxidase and intensity of the reaction was proportional to absorbance measured at 450 nm with SynergyMx (BioTek) after addition of 50 μl H₂SO₄ at 1M.

[2] = target: T2, 2PT-NBD1 (human CFTR nucleotide-binding domain 1, residues 387-646, with S492P, A534P, I539T) (human, UniProt P13569 388-646, biotinylated for the ELISA (sites not given)); experiment: ELISA, biotinylated 2PT-NBD1 on avidin-coated plate, T8 titrated, anti-His detection
T2 construct: N-terminal His6-SUMO tag removed with Ulp1; In the T2a-T4 and T27 crystals the domain was cut by papain or subtilisin
T2 sequence (P13569 388-646 V470M/S492P/A534P/I539T limits assumed): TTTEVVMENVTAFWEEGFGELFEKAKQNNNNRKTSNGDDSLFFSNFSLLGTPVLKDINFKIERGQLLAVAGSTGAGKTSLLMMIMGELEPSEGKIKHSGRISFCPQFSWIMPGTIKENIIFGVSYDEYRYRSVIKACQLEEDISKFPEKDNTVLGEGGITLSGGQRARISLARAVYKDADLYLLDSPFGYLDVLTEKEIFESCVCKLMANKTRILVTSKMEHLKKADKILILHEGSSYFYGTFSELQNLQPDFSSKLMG
Protocol: as §1, §2

[3] = target: T2, 2PT-NBD1 (human CFTR nucleotide-binding …); experiment: ELISA, biotinylated 2PT-NBD1 on avidin-coated plate, T2a titrated
Excerpt: (§3) The location of these nanobodies completely overlaps (FIG. 11a) with that of the C-terminal regulatory extension (RE) observed in previously published structures of NBD1^{[25,26].} The RE segment, comprising residues 654-673 was removed from the 2PT-NBD1 construct used for immunization and characterization. While the functional role of the RE is still unclear, it has been described to be a very mobile domain^{[27]}. […] This is consistent with RE being a dynamic region of CFTR.
(§4) For dose-response assays, Nunc MaxiSorp 96-well plates (ThermoScientific), were coated with 5 μg/ml NeutrAvidin Biotin-Binding protein (ThermoScientific) overnight at 4° C. and blocked 2 h at room temperature (RT) with 2% milk in phosphate-buffered saline (PBS). Each new reagent addition was preceded by three washes with 200 μl of NBD1 buffer (20 mM HEPES pH 7.5, 150 mM NaCl, and 10% (w/v) glycerol, 10% (w/v) ethylene glycol, 2 mM ATP, 3 mM MgCl₂). Then, biotinylated purified NBD1 proteins at 5 μg/ml were immobilized 30 min at RT followed by 1 h RT incubation with 100 μl various concentrations (0-20 μg/ml) of purified nanobodies. […] 50 μl of 1-Step UltraTMB-ELISA (ThermoScientific) was used as a substrate for the peroxidase and intensity of the reaction was proportional to absorbance measured at 450 nm with SynergyMx (BioTek) after addition of 50 μl H₂SO₄ at 1M.

[4] = target: 2PT-NBD1-RE (2PT-NBD1 with residues 387-678, containing the regulatory extension) (human, UniProt P13569 387-678, biotinylated for the ELISA (sites not given)); experiment: ELISA, biotinylated 2PT-NBD1-RE on avidin-coated plate, T2a titrated
2PT-NBD1-RE (2PT-NBD1 with residues 387-678, containing the regulatory extension), sequence (P13569 other isoform, or with tags, fused parts or gaps limits assumed): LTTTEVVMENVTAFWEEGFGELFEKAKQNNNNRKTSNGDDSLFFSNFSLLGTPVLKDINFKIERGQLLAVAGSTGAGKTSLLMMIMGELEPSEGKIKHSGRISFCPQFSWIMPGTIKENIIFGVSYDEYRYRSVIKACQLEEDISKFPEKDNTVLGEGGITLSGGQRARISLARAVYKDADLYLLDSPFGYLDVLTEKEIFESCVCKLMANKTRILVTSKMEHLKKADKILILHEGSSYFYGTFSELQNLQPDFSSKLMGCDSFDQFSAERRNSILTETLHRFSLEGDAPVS
Excerpt: as §3, §4

F508del-2PT-NBD1 [5] = target: T1, F508del-2PT-NBD1; experiment: ELISA, biotinylated F508del-2PT-NBD1 on avidin-coated plate, nanobody titrated, anti-His detection
Protocol: as §1
For dose-response assays, Nunc MaxiSorp 96-well plates (ThermoScientific), were coated with 5 μg/ml NeutrAvidin Biotin-Binding protein (ThermoScientific) overnight at 4° C. and blocked 2 h at room temperature (RT) with 2% milk in phosphate-buffered saline (PBS). Each new reagent addition was preceded by three washes with 200 μl of NBD1 buffer (20 mM HEPES pH 7.5, 150 mM NaCl, and 10% (w/v) glycerol, 10% (w/v) ethylene glycol, 2 mM ATP, 3 mM MgCl₂). Then, biotinylated purified NBD1 proteins at 5 μg/ml were immobilized 30 min at RT followed by 1 h RT incubation with 100 μl various concentrations (0-20 μg/ml) of purified nanobodies. Signal detection was followed using His-tag specific antibody (Invitrogen, catalogue number: MA1-135, 1:3000 dilution) to detect the nanobodies and secondary antibody anti-mouse coupled to horse radish peroxidase (HRP) (Millipore, catalogue number: AP308P, 1:5000 dilution). 50 μl of 1-Step UltraTMB-ELISA (ThermoScientific) was used as a substrate for the peroxidase and intensity of the reaction was proportional to absorbance measured at 450 nm with SynergyMx (BioTek) after addition of 50 μl H₂SO₄ at 1M.

[6] = target: Stabilized human CFTR (stab-CFTR: 2PT/ΔRI/R1048A_1172X) (human, UniProt P13569 1-1171, limits assumed); experiment: cell-based or functional assay
Stabilized human CFTR (stab-CFTR: 2PT/ΔRI/R1048A_1172X), sequence (P13569 other isoform, or with tags, fused parts or gaps R1048A R1048A limits assumed): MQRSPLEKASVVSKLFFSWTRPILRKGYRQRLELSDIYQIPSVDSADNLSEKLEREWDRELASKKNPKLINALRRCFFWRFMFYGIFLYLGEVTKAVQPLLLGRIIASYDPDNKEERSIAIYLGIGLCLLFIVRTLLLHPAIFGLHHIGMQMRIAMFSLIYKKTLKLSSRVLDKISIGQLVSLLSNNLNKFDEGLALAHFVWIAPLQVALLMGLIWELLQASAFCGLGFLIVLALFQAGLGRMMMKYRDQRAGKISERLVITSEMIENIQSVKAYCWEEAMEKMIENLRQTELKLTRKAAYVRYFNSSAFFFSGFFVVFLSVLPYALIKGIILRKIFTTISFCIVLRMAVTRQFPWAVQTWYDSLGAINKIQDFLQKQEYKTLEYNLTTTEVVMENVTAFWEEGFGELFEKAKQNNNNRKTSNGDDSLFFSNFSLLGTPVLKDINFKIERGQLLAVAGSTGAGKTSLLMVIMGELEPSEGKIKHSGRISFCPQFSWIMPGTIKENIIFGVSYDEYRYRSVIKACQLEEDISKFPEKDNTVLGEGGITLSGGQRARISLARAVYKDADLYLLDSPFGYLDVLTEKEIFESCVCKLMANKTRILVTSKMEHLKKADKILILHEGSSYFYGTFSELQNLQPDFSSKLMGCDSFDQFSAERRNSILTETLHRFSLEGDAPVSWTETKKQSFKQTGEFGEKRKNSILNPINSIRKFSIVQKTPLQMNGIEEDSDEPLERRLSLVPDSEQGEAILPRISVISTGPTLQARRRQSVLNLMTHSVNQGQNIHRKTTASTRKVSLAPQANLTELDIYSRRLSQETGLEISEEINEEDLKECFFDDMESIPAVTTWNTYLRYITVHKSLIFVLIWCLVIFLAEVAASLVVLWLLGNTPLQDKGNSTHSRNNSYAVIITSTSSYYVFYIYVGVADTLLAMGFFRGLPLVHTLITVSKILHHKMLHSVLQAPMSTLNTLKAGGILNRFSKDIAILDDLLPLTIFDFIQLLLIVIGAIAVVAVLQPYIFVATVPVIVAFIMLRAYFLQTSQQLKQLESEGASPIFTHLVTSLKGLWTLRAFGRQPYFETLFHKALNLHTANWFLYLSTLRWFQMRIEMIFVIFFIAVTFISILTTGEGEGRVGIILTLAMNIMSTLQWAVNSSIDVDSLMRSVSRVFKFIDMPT

Binder | binding result (F508del-2PT-NBD1 [1]) | EC50 (read off the curve) [2] | EC50 (read off the curve) [3] | EC50 (read off the curve) [4] | EC50 (read off the curve) (F508del-2PT-NBD1 [5]) | thermostabilization (nanoDSF, Tm) [6]
B1 | no binding (tested: log [T8] about -5.9 M) | ~10 nM | – | – | – | –
B2 | – | – | ~7 nM | ~10 nM | ~10 nM | 8 °C
